Assay [1] concerns the target Ly76 (Ter119 antigen) on mouse red blood cells (mouse). Kind of assay: binding assay using mouse RBC ghosts.
Assay [2] shares this target. In words: cell-based or functional assay.
The target is the same in assay [3]. In words: binding assay on mouse RBCs.
Assay [4] has the same target. Kind of assay: 125I-labelled protein injected in mice; radioactivity in RBC pellet vs plasma 1 hour after injection.
Assay [5] has as its target T1, human FcγRIIA (human, UniProt P12318 34-317).
T1 construct: whole, on cells; also called hFcγRIIA; platelet FcγRIIA
T1 sequence (looked up): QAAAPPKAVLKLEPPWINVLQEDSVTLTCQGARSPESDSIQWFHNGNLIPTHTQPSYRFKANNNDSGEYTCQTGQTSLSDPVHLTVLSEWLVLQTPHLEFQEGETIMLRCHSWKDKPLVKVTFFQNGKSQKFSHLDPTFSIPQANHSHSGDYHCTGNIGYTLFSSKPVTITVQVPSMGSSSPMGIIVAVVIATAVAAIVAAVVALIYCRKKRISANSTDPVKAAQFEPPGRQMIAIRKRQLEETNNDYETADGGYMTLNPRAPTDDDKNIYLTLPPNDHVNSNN
Kind of assay: flow cytometry, THP-1 cells. In general terms: A flow cytometer gives signals particle by particle.

The target of assay [6] is T1, human FcγRIIA. Kind of assay: flow cytometry, human platelets.
Assay [7] deals with T1, human FcγRIIA. In words: flow cytometry, washed platelets of transgenic mice expressing human FcγRIIA.
The target of assay [8] is T1, human FcγRIIA. Kind of assay: flow cytometry, human platelets, His-tagged protein detected with Alexa 488 anti-His antibody.

Where only a bound is given, the exact number is not on record here.

Ter119 scFv showed a Kd in assay [1] of 30 nM.
In turn, Ter119 scFv-IdeS fusion protein returned an inhibition of agglutination of mouse RBCs loaded with Ter119 mAb in assay [2] of 1.25 nM. Besides, the dissociation constant (Kd) in assay [3] was 25 nM; in assay [1] it was 26 nM. The percent bound to RBCs in blood in assay [4] was above 98%.

B1: scIV.3-LPETGG-FAM (scFv)
scFv: QVQLVQSGAEVKKPGASVKVSCKASGYTFTNYGMNWVRQAPGQRLEWMGWLNTYTGESWYPDDFKGRVTITRDTSASTAYMELSSLRSEDTAVYYCARGDYGYDDPLDYWGQGTLVTVSSGAGGSGGGGSGGGGSGGGGSDIVMTQSPLSLPVTPGEPASISCRSSKSLLHTNQNTYLHWFLQKPGQSPQLLIYRMSVLASGVPDRFSGSGSGTDFTLKISRVEAEDVGVYYCMQHLEYPLTFGQGTKLEIKR
modifications: FAM-containing peptide attached site-specifically to the C-terminal sortag (LPET) by sortase
notes: Single chain variable fragment of monoclonal antibody IV.3, C-terminally modified with a FAM peptide by sortase; also called scIV.3-FAM; FAM-conjugated scIV.3; not shown: short semi-rigid linker, sortag LPET and the FAM-containing peptide joined by sortase
With B1, the Kd in assay [5] was determined as 11 nM; in assay [6], 1 nM; in assay [7], 0.27 nM.

B2: scIV.3 (single-chain variable fragment of IV.3, scIV.3-LPETGG) (scFv)
scFv: QVQLVQSGAEVKKPGASVKVSCKASGYTFTNYGMNWVRQAPGQRLEWMGWLNTYTGESWYPDDFKGRVTITRDTSASTAYMELSSLRSEDTAVYYCARGDYGYDDPLDYWGQGTLVTVSSGAGGSGGGGSGGGGSGGGGSDIVMTQSPLSLPVTPGEPASISCRSSKSLLHTNQNTYLHWFLQKPGQSPQLLIYRMSVLASGVPDRFSGSGSGTDFTLKISRVEAEDVGVYYCMQHLEYPLTFGQGTKLEIKRGSSSGLPETGGGHHHHHH
notes: also called His-tagged scIV.3; IV.3 scFv
For B2, the affinity in assay [8], expressed as Kd, was 0.9 nM.

B3: scIV.3-IdeS (scFv)
chain: QVQLVQSGAEVKKPGASVKVSCKASGYTFTNYGMNWVRQAPGQRLEWMGWLNTYTGESWYPDDFKGRVTITRDTSASTAYMELSSLRSEDTAVYYCARGDYGYDDPLDYWGQGTLVTVSSGAGGSGGGGSGGGGSGGGGSDIVMTQSPLSLPVTPGEPASISCRSSKSLLHTNQNTYLHWFLQKPGQSPQLLIYRMSVLASGVPDRFSGSGSGTDFTLKISRVEAEDVGVYYCMQHLEYPLTFGQGTKLEIKRGSSSGLPETGGGSSDSFSANQEIRYSEVTPYHVTSVWTKGVTPPANFTQGEDVFHAPYVANQGWYDITKTFNGKDDLLCGAATAGNMLHWWFDQNKDQIKRYLEEHPEKQKINFNGEQMFDVKEAIDTKNHQLDSKLFEYFKEKAFPYLSTKHLGVFPDHVIDMFINGYRLSLTNHGPTPVKEGSKDPRGGIFDAVFTRGDQSKLLTSRHDFKEKNLKEISDLIKKELTEGKALGLSHTYANVRINHVINLWGADFDSNGNLKAIYVTDSDSNASIGMKKYFVGVNSAGKVAISAKEIKEDNIGAQVLGLFTLSTGQDSWNQTNHHHHHH
notes: also called IV.3-IdeS conjugate; His-tagged scIV.3-IdeS
On to B3, for which the dissociation constant Kd in assay [8] is 1.3 nM.

For orientation: Kd means the concentration at which binding is half-saturated.
